Assay results taken from patent US20230331835A1 (WISCONSIN ALUMNI RESEARCH FOUNDATION, published 2023).

Molecular target: T1, recombinant insulin receptor ecto-domain protein rIR (R&D Systems #1444-IR) (UniProt P06213-2 28-944, limits assumed)
T1 construct: extracellular domain; Bought protein; also called soluble IR ectodomain
Assay: competitive BMEC binding assay: scFv-Fc pre-incubated with soluble ectodomain, then cell surface binding on BMECs

T1 sequence (P06213 other isoform, or with tags, fused parts or gaps limits assumed): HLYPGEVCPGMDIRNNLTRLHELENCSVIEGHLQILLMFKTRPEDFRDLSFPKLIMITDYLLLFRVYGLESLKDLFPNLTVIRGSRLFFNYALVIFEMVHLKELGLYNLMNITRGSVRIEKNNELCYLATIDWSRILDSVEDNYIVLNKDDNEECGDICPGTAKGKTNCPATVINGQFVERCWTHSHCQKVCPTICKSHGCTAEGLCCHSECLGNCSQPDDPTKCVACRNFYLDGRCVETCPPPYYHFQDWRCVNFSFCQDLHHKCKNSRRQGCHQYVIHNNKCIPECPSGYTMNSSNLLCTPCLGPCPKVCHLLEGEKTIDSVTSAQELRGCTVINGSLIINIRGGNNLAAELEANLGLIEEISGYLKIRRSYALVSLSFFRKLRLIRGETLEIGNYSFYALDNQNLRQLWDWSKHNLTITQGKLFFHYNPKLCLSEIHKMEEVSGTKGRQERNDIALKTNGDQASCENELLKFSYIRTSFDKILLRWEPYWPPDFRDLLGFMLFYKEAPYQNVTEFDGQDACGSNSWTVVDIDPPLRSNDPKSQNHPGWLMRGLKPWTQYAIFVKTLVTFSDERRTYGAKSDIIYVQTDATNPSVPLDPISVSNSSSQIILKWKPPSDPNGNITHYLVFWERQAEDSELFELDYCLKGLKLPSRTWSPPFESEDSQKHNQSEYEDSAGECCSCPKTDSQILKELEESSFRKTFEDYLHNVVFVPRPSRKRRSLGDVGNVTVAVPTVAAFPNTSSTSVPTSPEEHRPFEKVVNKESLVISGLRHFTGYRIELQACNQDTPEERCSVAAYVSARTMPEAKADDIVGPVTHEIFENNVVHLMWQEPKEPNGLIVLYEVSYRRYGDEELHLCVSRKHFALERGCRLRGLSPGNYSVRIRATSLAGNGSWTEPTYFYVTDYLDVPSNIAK

Row | binding result | Binder
1 | no binding | 17-scFv-Fc (Fc fusion, scFv linked directly to rabbit IgG Fc, made in HEK293F cells; dimer; also called clone 17 scFv-Fc; not shown: rabbit IgG Fc region (pIRES-rabbit Fc vector)) QVQLLQSAGALVQPGGSLRLSCAASGFTFSSSTMHWVRQAPGKGLEWVAVVSYDGNTQYYADSVKGRFTISRDNSKNTLSLQMNNLRAEDTAVYYCAGLWGSLLGYFQHWGQGTLVTVSSGGGGSGGGGSGGGGSDIQMTQSPSFLSASVGDRVTITCRASQGVNNYLAWYQQKPGKAPKLLIYAASTLQSGVPSSFSGSGSGTEFTLTISSLQPEDFATYFCQQAHSFPPTFGGGTKLEIKR
2 | no binding | 46.1-scFv-Fc (Fc fusion, scFv linked directly to rabbit IgG Fc, made in HEK293F cells; dimer; also called clone 46.1 scFv-Fc; not shown: rabbit IgG Fc region (pIRES-rabbit Fc vector)) QVQLQESGGGLAQPGGSLRLSCAASGFTFSGYWMHWVRQAPGKGLVWVSRIKGDGTDIEYADSVKGRFTISRDNAKNTLYLQMNSLRAEDTAVYYCARDLRQTHWFDSWGQGTLVTVSSGGGGSGGGGSGGGGSQSALTQDPAVSVALGQTVRITCQGDSLRSYYASWYQQKPGQAPVLVMYGENSRPSGIPDRFSGSNSGNTASLIITGAQAEDEADYYCSSRDTSGNHVLFGGGTKLTVLG
